Source: the domain aggregation screens of Martell et al. (2025)

Assay: soluble fraction after stress (log2 fold change); higher = more stays soluble; pooled small domains, quantitative proteomics
Conditions: stress: 75 degC
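Also: 20 min heating vs room temperature control held 20 min.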

Row | Sequence | soluble fraction (log2)
1 | HMKVEIVRVVKDIHIGDEITKDMVRTVEVGGYNLPDGVVKDTATVIGRFASADMVPGDYIISSKIADAP | -0.378
2 | HMKVELSENEKIIYDLLSNQEVLLSEIKDKAELSNKAWDKSTKSLRKLGLVIVEKKDDNIYISKS | -0.101
3 | HMKVGEIIKAKREELKIPLVNFAKELDISQGYLSQIENGIKTNPNLDIILKIIHRLDIDLAMLL | -1.93
4 | HMKVIAEESYRILVDAIEKLPPQMKSIMQLALEGKSNPEIAETLNISGETVHSQKKIAYRKLRVYLKD | -2.36
5 | HMKVIETKYNTYVVKSGDTLYSVAKKYGISVTELKEINDLSNNTLSIGQKLLVPATTIIIDE | -0.637
6 | HMKVNMIIVMKPGARETDIQEVSNVLKSAGLGVHISKGTERTIIGVIGDKRLLNGIPLDLMHGVDKLVPIM | -1.24
7 | HMKVNQFEVEGNQRYSTEEIAKASGVSKGDNLFLVNKTETARKLLDELAYVRSVNIKRKLPDTLVITVAE | -0.032
8 | HMKVPDVQYMNKDSAIEALTANELKYTIVEAENENVAAGVVISQSVERDSQVAPGTSVELVVSTG | 0.212
9 | HMKVQEMTANSFLTQWEAGNVKTLDILPEGIIKGELNDGTKFQLYYSSAAGLIDDVKKNPEKFANTTVSEK | 0.0538
10 | HMKVQEVDYGTFLTMVDEGKVNQVDIENSKQITFNTKGDKNKVYITGQVNDPELVNRLYKAGVEFSQEIP | 0.273
11 | HMKVSNWYFNGAPSATTPPTSQWTTEKDKKAHIGDTFTSLDKSPSPNAGKSWRYTPSYTWEEIV | 0.655
12 | HMKVSRTAVKLHHANAVEVAKKLQPLFVVGDVQIEPVKDAGIILLKGPASTLADLRESIVQMDHTA | -0.188
13 | HMKVTRWEDTGMKPAEAQEWQHYDFKPQEAMNWRDAGFVPLVARTWSDKGFDASEAQAWRDSVRNS | -0.618
14 | HMKVVEKHIVPQIQNPIRLQEYASSIFKTITTRSGIKKAIKKQLILLNRKPANTGDWIKEGQLLELLAEE | -2.53
15 | HMKVYIKDISDLSDKLKSLLIENDIDDSNKLFEVEDQVLLEIKGLGSKTIDKIKDIVTEYLKKNN | -0.266
16 | HMKVYPIMEAIANNNIELVKLLLEYHADLNIKDSNGNTPLALAKETGAKEVEDLLLQWMKQHT | -1.06
17 | HMKWGDTPTVEVPNLIGMKKKDLQTQLVDLKLDISGDGEKVIKQSPEAGAKVKEGSKIRIYFG | -0.332
18 | HMKWYDSDKGFGFLSQEEGEDVYVRSSALPAGVEGLKAGQRVEFGIASGRRGPQALSL | -0.31
19 | HMKYKKYKLLKDLPTFKAGQLAYISKTGNLIAGTPENQKTTETGLIIMIYHETTLKKFPNILTEWFEEIE | -3.3
20 | HMKYNGDRPVFNDDVAWAKWMLENPAKITSHDKENLSSMLKKPEVVMLFEAEDLSVPDLRTLAKE | ≥ 1.04
21 | HMKYNYEAQQSDELSLVKGSRIHVLEKSSDGWWKGEIDNVVGWFPS | -0.239
22 | HMKYRLLGENLQTIRKARGMKQQELADQIGINMQSLSKIERGLNYPTFETLEKIMNALGITPNELLSG | -0.82
23 | HMKYRPGDVVTLRVARMGEMGAFLDAGTGNTNDDILLHKMQQTEEIKAGQDVKVYLYLDPNRRLTASMKL | -0.835
24 | HMKYSNDEVERDLYVRGVIYQIGDLVENKLDGTSGEVVRRGPNYVQYTDGENFYKAFLSALQEQK | -0.369
25 | HMKYSYAELTKLQEQIAQDRNAPLTVPNALGIGLDERNNVIEITVNIADEAAAKAYYLQKYGDRISLKTTD | -0.317
26 | HMKYTEEIFNILSRGGFISANSVSSTVKRYYDALEEDFTEYYDYYKGIGFYLEAGNGYYLFTR | -3.41

Row | Sequence | soluble fraction (log2)
27 | HMKYTVKSPLPGVIMSVLVKVGDTVKASDTVISLEAMKMENAIHAGRDGKVTSIDVNVGDSVLEGHTLVTI | -0.594
28 | HMLAAGTPLTVVTESSNLNIRQEPSTEAAVVGKAAKGEIVTLVEQTSGEWWKVSTKDGEEGYAYSRYL | 0.678
29 | HMLAAGTSLTVDTESSNLNIRQEPSTEGVILGKAAKGEVVTLVEQSSDEWWKIKTKDGEEGYAYARYLR | 0.175
30 | HMLADRANMAPAALRQIMTAIDGGNVTPKQIESATGMAHATVARALRKMLDDGLIANDGKGRYTVLT | -0.212
31 | HMLADTNIHTIALKHRLANEVVEQVRPFLPETATIRAYDNMLILKSDRATLANVEQLIKKLDT | 0.0428
32 | HMLALVREQIERNVSNPTDEDIRKIRHDVMEVITRAGADAATVDIAIEIDSQKNILRAIATGATEL | -0.0966
33 | HMLAMHVVESVGGAEQFTKLQNFAKTQNADYQKMWNDTMNSGNVLAIKTMLSGIQSDMIAVQ | -0.276
34 | HMLAQDVIVKQDGGTILSKVLEIGTQEIAYKKWNSQDGPVYKIAKDQVLSVNYQNGEVDRFA | -0.00975
35 | HMLAQISDEGAIGAVVARVLDAHPNEVARYHAGEEKVAKFLMGAAMRELRGKGDPAVVQRLLSEGLDARRV | -0.00832
36 | HMLARPTANELVKEMQRRAKEQRTELPPDAARDLLERSGQDQFLLGNEVDKLAALSGYTTITREMVAQAGT | 0.247
37 | HMLAVPADFAEKLQSLRSQLASDDLDASDAFGRLQPFIKALYPAQLEALRKAVDDFDFVEATRLIDQLPQ | -0.376
38 | HMLAYQRTYEKILEDLRNDVYPVNSLLPPEPKLEEIYHVSRTTVRRAIAQLADEGYVKVKQGYGTVVLKN | -2.02
39 | HMLDEPPVSQTLTTYDREHMALYLRLLDSARDGADWREAVQILFGLDPTRDPLRSRHVHDTHLARARWM | -0.0384
40 | HMLDFGQEDSEAVSEIILVLGRYWMDFSHKKYPEAEGSALRHKGISHIFTVLKPYLTSATAQLIEQRLQQ | -0.0669
41 | HMLDIQKKGENIAYIEGAGDVIPESLKQIGYHVVTIAPKDINAETLSRFDAVVVGIRAYNTVEDL | 0.0708
42 | HMLDKIRTYIDNSFTGVNETKKVKELKDELFENLKEKYNDQIQDGKTEQEAYNSVISGIGDLSELIESVK | ≥ 1.04
43 | HMLDKKKHLEQGRKIIEDQLAKYKIQPSFDTLKKLSAYYGLNNKEQLYAQVGMGFLELENLDEILQ | 0.307
44 | HMLDLPVRTINGRQYYYYEVRNRETVYGLSKRLGVTREEIVRYNPSMADGLKRGAILYFPVDEFSDRI | -2.84
45 | HMLDLSDFEVVRDLYLSEQIWNVGDLIIARSKKDDTYKAWEIIRKGTNYVTGIDESHKVEKIWLHDILI | -1.15
46 | HMLDSPHDDLNRKIVQMLQNDGRLPYKDIAEVLSVSEGTVRNRVQRMRDAGMLNIVALIDPMAI | -0.0197
47 | HMLDTPLTARELDVLYLMRQRMSAKEIAKQLGIATMTVNRHAANLYRKLGVNTRWDAVYRAEEVGILPP | -1.45
48 | HMLDVNLIFSRPGFSLSAAFTLHAGGITVLRGDSGSGKTTLADLLSGAIAPQKGRILSDGDIWFDAASGIN | 0.108
49 | HMLDYITLSPQELGKLLSAGNGDAAMVYLYMKATGDVTLKQAETQLGMTNQNLAWAESLLKRLGLMD | -1.9
50 | HMLDYKSALQELLQAQRRSRPRYEVISTEGPDHERVFEVAVWLDNEELGRGKGRSKREAEHQAAQAALTQL | -0.115
51 | HMLDYQLQVFKDTLEANRKHRGQKIVFIHGKGEGVLRRALIHALNYQYKKFTYQDASFREYGYGATQVTI | -0.312
52 | HMLEEIDYPEEQLQLLFAWSRDHVQSTPPGLPVVDDHVWHILVRGYGATDQRTEAFALLASYAGFP | 0.135

Row | Sequence | soluble fraction (log2)
53 | HMLEIDPPVDEISVSRKAFYEAAGYKVNPYTHIPPRYRKEFEEHSFVVMSWPRELPEETYRKFDRYLRDV | 0.0575
54 | HMLEIRGFTVLLSDRGIVGIIEEIIQNPGQDLLRILSPEKREILVPLHSDLITGINKKKKTITMNLPDGL | -1.87
55 | HMLELTGEEEFVIRTLTRQGDLHINALVVETDIPINRMISLLFELEMKGVVKALVGGVYHLLG | -2.45
56 | HMLELTVSDKMARLMAWRNRRRVNLSDQELHRIAAAPKQSPESILKMLPGFLQDSVPEIWAELTGGRP | -1.24
57 | HMLENSLDHIEGIGPKTKDTLLTYFKSVSKIKSANPSILAELIGAAKTKILLAAFEKEKTTS | -0.7
58 | HMLENYEGFKQKILKLTGIDLSSYKERQMRRRIDSLIHRNNYDDYDEYFKALTQNSNLYDEFINYLTI | -0.823
59 | HMLEQEDMYGYQMIETLRERSEHSFDLKAGTLYPLLHALEQKGLITARDEASAAGRPRRYYHLTDAG | -0.354
60 | HMLERPLFTPEQYGRFRGKEARIRLSNPVEGRKTLTGSIVEATEERIVVFVEEEEREVTVPFQWIKSGNL | -0.544
61 | HMLESVMHSRIAEIISREGTAPAHMSMQEKIRVVHKLDADGILMMKGAVAEIADQLSVSVPTIYRYLNKPQ | -2.49
62 | HMLETILQIGKDGVGENLVKQVNDALEARELIKGRVLDNNLELDARTAAQILAKATRSEVVQVIGTKFV | -0.00194
63 | HMLEVTQTDVKMYTTSGTPVYAAPDLNSAIVVYLERFVNVTVTGITDNGFYRVNLNGDYYIPGPYLISSV | -3.92
64 | HMLEYIEPRTAVQIHGIKAKPELNGKRGMVMGYAPERMRYRVRIDVGEGTGGKESEEVYLKPENVIAVK | 0.0615
65 | HMLFKGDTREENVILEFLSKNGTTSSDAIIKQTGLSASEFNQAITMLELKGLALNNGGEKWSL | 0.304
66 | HMLGDAVLRQVLETIPEDPAVDYLELRRNTGMTEADLDRVLADLENLGVINKKRTVEQVLYWRT | -0.651
67 | HMLGDAWSMLILRDAHSGFSRFDQFRKSLGIAPTMLTKRLSVLVDEGLLEKRQYSEHPPREEYVLTQAGQD | -0.0775
68 | HMLGERIRTLRKEIGMSVTELARRVKTSPSHISEIERGEKMPSLNLLVKIAKELKTSIDYLTGLVG | -0.498
69 | HMLGNIERALEMLQEVAATMDPVDIRLLLSMAQVESVRGNTEAAVKLIDEALVIDPGNERIEQIRLRVL | -0.482
70 | HMLGRPDMSPIPEGSRNNDLHAWGFGRLANHPDNKRQIEADFFERGRISGLGDAEIRASWNSILRQLGHQ | 0.0693
71 | HMLGSVRTIRQVLDDGRLIVADGGGNPSVIRRSGALAHETFANGQRVIVDPSGRLALELLPD | 0.171
72 | HMLGVLEYYNNGQKKSERTFKGGMQIYTEWYENGQMKAEERKWIDQLGSLKFLNLLSTEWDENGNEISRME | -1.55
73 | HMLGYGEQEREAQKYLEMHTAFQADPSLQKMYLPENQYALISKVMEMTGIKNVKSYLTPPNEL | -0.193
74 | HMLHVRSALMSELDGIEGIGEKRKRLLFDAFITRDAIAAATLEQLMAVKGMNRPSAEAVHKHFHG | -0.985
75 | HMLIELKIPSEWAGKSLHTLNLRQNYNVNVIGFRDEKSGKLNTHFDPSKKLPDEGIILVVADNRTLEKF | -0.7
76 | HMLIIDLPDFTNKKLSELQQWADANQITLKIVEKDVSSKPYDTILEQTPAKNKYEKIVKGSTMTVTVNIK | -0.965
77 | HMLINFPNKLKRLRLANNLTQQELANILETTKQAVSSYESGKSTPSLNSLIKLSEHFNISLDSLVFD | -0.038
